Assay [1] addresses murine mAbGA733. Description: competition ELISA: free GA733 (1-100 nM) varied, constant murine mAbGA733 (0.063 nM), plates coated with GA733. For orientation: In an ELISA, binding on a coated surface is turned into a signal by an enzyme label.
Assay [2] deals with murine mAbGA733. Briefly: competition ELISA, free GA733 against coated GA733.
Assay [3] concerns the target plant produced CO17-1A of Example 9. Briefly: competition ELISA: free GA733 (1-100 nM) varied, constant plant CO17 (1/500 dilution; protein A purified and ammonium sulfate fractionated preparations alike), plates coated with GA733.
Assay [4] deals with colorectal cancer-associated antigen (Ag) GA733-2 (UniProt P16422). Briefly: ELISA, leaf extract on plates coated with Ag GA733-2, anti-mouse IgG peroxidase (whole molecule).
The target is the same in assay [5]. Description: ELISA, N. benthamiana leaf extract on plates coated with Ag GA733-2, anti-mouse IgG peroxidase (whole molecule or Fc specific).

A word on the IC50: it is the concentration that gives 50% inhibition. A lower IC50 goes with higher potency. In the case of “colorectal cancer-associated antigen (Ag) GA733-2 (from UniProt P16422 24-265)”, the half-inhibitory concentration (IC50) with murine mAbGA733 [1] worked out at 35 nM; in assay [3], 6.3 nM. Also, in the assay with murine mAbGA733 [2], the fold higher antigen concentration for 50% inhibition, against plant expressed CO17-1A was found to be 5 fold.

B1: plant-produced rAB CO17-1A expressed from AlMV vectors A3a17-1ALC and A3b17-1AHC in Rep plants (antibody, INN chains, looked up, V domains shown)
VH: QVQLQQSGAELVRPGTSVKVSCKASGYAFTNYLIEWVKQRPGQGLEWIGVINPGSGGTNYNEKFKGKATLTADKSSSTAYMQLSSLTSDDSAVYFCARDGPWFAYWGQGTLVTVSA
VL: NIVMTQSPKSMSMSVGERVTLTCKASENVVTYVSWYQQKPEQSPKLLIYGASNRYTGVPDRFTGSGSATDFTLTISSVQAEDLADYHCGQGYSYPYTFGGGTKLEIK
modifications: plant-produced
Turning to B1, the fold OD490 nm over controls (NI, HC, LC) in assay [4] lay in the range of 2 to 3 fold.

B2: plant-produced rAb CO17-1A expressed from TMV vectors 30B-17HCK and 30B-17LC in Nicotiana benthamiana (antibody, INN chains, looked up, V domains shown, part only)
VH: QVQLQQSGAELVRPGTSVKVSCKASGYAFTNYLIEWVKQRPGQGLEWIGVINPGSGGTNYNEKFKGKATLTADKSSSTAYMQLSSLTSDDSAVYFCARDGPWFAYWGQGTLVTVSA
VL: NIVMTQSPKSMSMSVGERVTLTCKASENVVTYVSWYQQKPEQSPKLLIYGASNRYTGVPDRFTGSGSATDFTLTISSVQAEDLADYHCGQGYSYPYTFGGGTKLEIK
modifications: plant-produced, His tag
In assay [5], B2 showed a fold O.D.490 over controls (NI, HC, LC) of 2 to 3 fold.

Source of the values: patent US20050229275A1.
